Test system: MS2 coat protein
Experiment: apparent KD of MS2 coat protein; designed switch direction (-1 OFF switch, 1 ON switch): -1; higher = weaker reporter binding
In short: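 The buffer was Tris-HCl pH 7.5 with KCl, MgCl2, BSA, DTT, tRNA and Tween-20. In it, SNAP-549-labelled MS2 coat protein was titrated in doubling steps from 0.7 or 1.5 nM to 3 µM over chip-bound RNA switches transcribed by stalled E. coli RNA polymerase on Illumina chips. Apparent KD is the per-design median over clusters of curve fits to normalised fluorescence.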

[1] = Eterna round: R95, input ligand: FMN 200 uM
[2] = Eterna round: R95, input ligand: microRNA oligo, concentration not stated
[3] = Eterna round: R95, input ligand: none
[4] = input ligand: microRNA oligo, concentration not stated

| Sequence | apparent KD of MS2 coat protein [2] [nM] | apparent KD of MS2 coat protein (input ligand: FMN 200 uM) [nM] | apparent KD of MS2 coat protein (input ligand: none) [nM] | other results |
| --- | --- | --- | --- | --- |
| GAGUGACAUGAGGAUCACCCAUGUGAGGAUAUCCGAUGGACCAAAUUAACAAUAGAAGGGAGAAGGCACAUAAA [Exclusion 1 V7] (puzzle: Exclusion 1) | 127 | – | – | apparent KD of MS2 coat protein [1]: 162 nM; apparent KD of MS2 coat protein [3]: 131 nM |
| GAGUGACAUGAGGAUCACCCAUGUGAGGAUAUCGGACGGACCAAAUUAACAUCCGCCGCGAGAAGGCACAUCGG [Exclusion 1 V22] (puzzle: Exclusion 1) | 69.4 | – | – | – |
| GAGUGACAUGAGGAUCACCCAUGUGAGGAUAUGCGAUGGACCAAAUUAACAAUAGAAGGCAGAAGGCGCAUAAA [Exclusion 1 V9] (puzzle: Exclusion 1) | 34.8 | – | – | apparent KD of MS2 coat protein [1]: 41.4 nM; apparent KD of MS2 coat protein [3]: 41.1 nM |
| GAGUGAUAAGGAUAUACAUGAGGAUCACCCAUGUGCUUCAGCUAGGAGACUAGCAUUGGUAGAAGGUAUUACUC [Mod of lroppy 11 - Jieux - Exclusion 3] (Eterna round: R97, puzzle: Exclusion 3) | – | 54.3 | 18.7 | – |
| GAGUGCUGAGGAUAUACAUGAGGAUCACCCAUGUGCUUCAGCUAGGAGACUAGCAUUGGUAGAAGGCAGUACUC [LRO-Excl3-01] (puzzle: Exclusion 3) | 11.1 | – | – | – |
| GAGUGCUGAGGAUAUACAUGAGGAUCACCCAUGUGCUUCAGCUAGGAGACUAGCAUUGGUAGAAGGCAGUACUC [Mod of lroppy - Jieux - Exclusion 3] (Eterna round: R97, puzzle: Exclusion 3) | – | 76.8 | 12.4 | – |
| GAGUGCUGAGGAUAUACAUGAGGAUCACCCAUGUGCUUCAGCUAGGAGACUAGCAUUGGUAGAAGGUAGUACUC [LRO-Excl3-02] (puzzle: Exclusion 3) | 10.6 | – | – | – |
| GAGUGCUGAGGAUAUACAUGAGGAUCACCCAUGUGCUUCAGCUAGGAGACUAGCAUUGGUAGAAGGUAGUACUC [Mod of lroppy 4 - Jieux - Exclusion 3] (Eterna round: R97, puzzle: Exclusion 3) | – | 19.9 | 13.2 | – |
| GAGUGCUGAGGAUAUACAUGAGGAUCACCCAUGUGCUUCAGCUAGGAGACUAGUAUCAGUAGAAGGCAGUACUC [Mod of lroppy 20 - Jieux - Exclusion 3] (Eterna round: R97, puzzle: Exclusion 3) | – | 57.3 | 14.7 | – |
| GAGUGCUUAGGAUAUACAUGAGGAUCACCCAUGUGCUUCAGCUAGGAGACUAGCAUUGGUAGAAGGGAGUACUC [Mod of lroppy 5 - Jieux - Exclusion 3] (Eterna round: R97, puzzle: Exclusion 3) | – | 24.2 | 14.9 | – |
| GAGUGUUGAGGAUAUACAUGAGGAUCACCCAUGUGCUUCAGCUAGGAGACUAGCAUUGGUAGAAGGCAAUACUC [Mod of lroppy 6 - Jieux - Exclusion 3] (Eterna round: R97, puzzle: Exclusion 3) | – | 90.7 | 14.8 | – |
| GAUACACAUGAGGAUCACCCAUGUGAGGAUAUGGAGGAGUUGCGAGUAAGCGAUGGAUCCAGAAGGCGCGUGAG [JR_Ex1_Sub082] (Eterna round: R97, puzzle: Exclusion 1) | – | 73.2 | 64.2 | – |
| GAUAGACAUGAGGAUCACCCAUGUGAGGAUAUGCGUACGUUGUCCGUAGGCGACGUGCGCAGAAGGCGCGAGGU [Mat - Mod of JL D93] (puzzle: Exclusion 1) | 42.5 | – | – | – |
| GAUAGAGAGCAGGAUAUCAUAGAAAUGUAUGAAUGAGAAGGGCUCACAUGAGGAUCACCCAUGUGGUCCUAGAU [JL Dibiri mod 19] (Eterna round: R96, puzzle: Exclusion 6) | – | – | – | apparent KD of MS2 coat protein [4]: 23.4 nM |
| GAUAGAGAGCAGGAUAUCAUAGAAAUGUAUGAAUGAGAAGGGCUCACAUGAGGAUCACCCAUGUGGUCCUAGAU [JL Dibiri mod 19] (puzzle: Exclusion 6) | 22.4 | – | – | apparent KD of MS2 coat protein [1]: 135 nM; apparent KD of MS2 coat protein [3]: 21.1 nM |
| GAUAGAGAGCAGGAUAUCUUGGGUAAGUGUUGUAGAGAAGGGCUCACAUGAGGAUCACCCAUGUGGUCCAAGAU [JL Dibiri mod 07] (puzzle: Exclusion 6) | 16.9 | – | – | apparent KD of MS2 coat protein [1]: 35.2 nM; apparent KD of MS2 coat protein [3]: 17.2 nM |
| GAUAGAGCAGGAUAUUCAAUAUAUCACAUGAGGAUCACCCAUGUCCAGCGAAAGCUGGAGGGAGAAGGGCUCUAUC [Mat - Exclusion 5 - Eli mod - D99] (puzzle: Exclusion 5) | 366 | – | – | apparent KD of MS2 coat protein [1]: 77.6 nM; apparent KD of MS2 coat protein [3]: 262 nM |
| GAUCAACAAUCGAGCGGAUACAUGAGGAUCACCCAUGUCCGUAGUCGGGUAAAUAACAAGCUUUUUUCGCCGUCCCU [Eternabot (Original) Solution 42] (Eterna round: R97, puzzle: Sensor, turn-off variant 1) | – | 15.4 | 14.9 | – |

| Sequence | apparent KD of MS2 coat protein [2] [nM] | apparent KD of MS2 coat protein (input ligand: FMN 200 uM) [nM] | apparent KD of MS2 coat protein (input ligand: none) [nM] | other results |
| --- | --- | --- | --- | --- |
| GAUCAACAUGAGGAUCACCCAUGUCAGGAUAUCUAUCAAGUGAGCCUAUCACAAUUUGGGAGAAGGGACCUAAU [Eternabot (L2) Solution 51] (Eterna round: R97, puzzle: Exclusion 1) | – | 35.1 | 35.8 | – |
| GAUCAUGCAGGAUAUACAGUAACCAUGAAAACAUGGUUGCUACAUGAGGAUCACCCAUGUAGAAGGGCAUGAUC [Omei Ex2 A2] (Eterna round: R97, puzzle: Exclusion 2) | – | 17.9 | 16.9 | – |
| GAUCAUGCAGGAUAUACAUGGAACAUUAAAUCAUGAAUUCUACAUGAGGAUCACCCAUGUAGAAGGGCAUGAUC [Omei Ex2 A17] (Eterna round: R97, puzzle: Exclusion 2) | – | 169 | 72.1 | – |
| GAUCAUGCAGGAUAUACAUUAACCAUGAAAACAUGGUUGUCACAUGAGGAUCACCCAUGUAGAAGGGCAUGAUC [Omei Ex2 A6] (Eterna round: R97, puzzle: Exclusion 2) | – | 37.2 | 23.5 | – |
| GAUCCACAUGAGGAUCACCCAUGUGAGGAUAUGAUACUAUGUACUUCGGUACAUAGUAUCAGAAGGCAUAUUGA [Ex1-3: 46] (puzzle: Exclusion 1) | 36.3 | – | – | – |
| GAUCCACAUGAGGAUCACCCAUGUGAGGAUAUGUCCAUAUUCGGCAAAUCGGAUAUGGACAGAAGGCACACCGG [JR_Exclusion1_Sub012] (puzzle: Exclusion 1) | 104 | – | – | – |
| GAUCCGUUAGGAUAUACAGGAUUCACGCCUGAGUGAAUGUAGUAGAAGGAACAUGAGGAUCACCCAUGUGGUAU [Eternabot (L1) Solution 85] (Eterna round: R97, puzzle: Exclusion 4) | – | 83.2 | 40.5 | – |
| GAUCCUUAAGUCAGGAUAUCAAGCAAACUCUAAAUUGAGAAGGGACAUGAGGAUCACCCAUGUCACCGAAAUAA [Zabema] (puzzle: Brourd's mod of Exclusion 4) | 13 | – | – | – |
| GAUCCUUCUGUUAGGAUAUGCUUCGGGCUUCCGCUGCAGAAGGAACAUGAGGAUCACCCAUGUCAAAUAAAAUC [JL-BMX4-4.38 ViennaUCT mod] (Eterna round: R97, puzzle: Brourd's mod of Exclusion 4) | – | 48.5 | 17.8 | – |
| GAUCCUUUGACGGACGUCUCGAAACAUGAGGAUCACCCAUGUGAGGAUAUCUCCGAGAGGUCGGCAGAGAAGGCACAUGAACAA [MOD3 Eternabot solution 19 score 84.66] (Eterna round: R96, puzzle: Exclusion NG 3) | – | 123 | 19.8 | apparent KD of MS2 coat protein [4]: 16.5 nM |
| GAUCUACAUGAGGAUCACCCAUGUGAGGAUAUUUAGACCAACGCUCUAGCUGUUGAUGGAAGAAGGCACCACCG [Eternabot (L2) Solution 56] (Eterna round: R97, puzzle: Exclusion 1) | – | 25.4 | 26.2 | – |
| GAUCUAGGUGUCAGGAUAUGUAGCUAGGUAAGCAGACAGAAGGGACAUGAGGAUCACCCAUGUCGCAAAUUAAU [Gezadi] (Eterna round: R97, puzzle: Brourd's mod of Exclusion 4) | – | 86 | 18.5 | – |
| GAUCUGACAGGAUAUACAUGAGGAUCACCCAUGUGCGUGCUAGCGAAAGCUAGCGCAGGUAGAAGGGUCAGAUC [Ex3 dot plot directed v4] (puzzle: Exclusion 3) | 11.3 | – | – | apparent KD of MS2 coat protein [1]: 14.4 nM; apparent KD of MS2 coat protein [3]: 12.9 nM |
| GAUCUGAUAGGAUAUACAUGAGGAUCACCCAUGUGCGAGCUAGCGAAAGCUAGCUCAGGUAGAAGGGUCAGAUC [Ex3 dot plot directed v2] (puzzle: Exclusion 3) | 11.7 | – | – | – |
| GAUCUGCAGCAGGAUAUGCUCUCGGAAACGAGCGCAGAAGGGCUGACAUGAGGAUCACCCAUGUAAUAAUGGCC [EX6 A.24] (Eterna round: R97, puzzle: Exclusion 6) | – | 89.7 | 44.2 | – |
| GAUGAGGUAGGAUAUACGAGAAGAUAGGGUAGAGAGAGAACACAUGAGGAUCACCCAUGUAGAAGGACCAGUAG [Mat - Exclusion 2 - Mod of my Tesla design - D74] (puzzle: Exclusion 2) | 21.1 | – | – | apparent KD of MS2 coat protein [1]: 48.9 nM; apparent KD of MS2 coat protein [3]: 21.4 nM |
| GAUGUACAUGAGGAUCACCCAUGUCAGGAUAUUAGGCGCCCUCAUAGCAGGGCCAUGAUGAGAAGGGACAGUAC [Eternabot (L2) Solution 33] (Eterna round: R97, puzzle: Exclusion 1) | – | 67.6 | 66.4 | – |
| GAUGUUCGAGUUAGGAUAUGAAUCCAUACCGGACAUCAGAAGGAACUUGAGGAUCACCCAAGUGGGAAAGAAAU [Orzavera] (Eterna round: R97, puzzle: Brourd's mod of Exclusion 4) | – | 26.3 | 23.5 | – |
